Measurements taken from patent US20180282422A1 (DINGFU BIOTARGET, published 2018).

Legend:
hCD137-muFc [1] = biological target: T1, hCD137-muFc (human; mouse, UniProt Q07011 24-186); test: SPR, BIAcore X100; anti-hFc on a CM5 chip, CD137-muFc as analyte 100-3.16 nM; 1:1 Langmuir model
T1 construct: range 1-186; It states no cleavage site; Made in HEK293 and purified on protein A; also called recombinant human CD137; not shown: mouse IgG1-Fc (muFc) domain, residues 98-324 of UniProt P01868
Experimental: (§1) The binding kinetics of anti-hCD137 antibody against the recombinant human CD137 were measured by surface plasmon resonance (SPR) process using a BIAcore X100 instrument. Anti-hFc antibody (not cross-identifying mouse Fc) was conjugated on CM5 chip, CD137-muFc was diluted to 5 nM with running buffer and captured as a ligand by the antibody on the chip. CD137-muFc was diluted with running buffer to 1000-31.6 nM (C14Mab) or 100-3.16 nM (C14 Mab new), diluted twice to a total of 6 concentrations. The injection time was 180 s, the dissociation time was 1800 s and the regeneration time was 60 s. The running buffer was HBS-EP+, and the regeneration buffer was 10 mM glycine-HCl (pH 2.0). The association rate (Kₒₙ) and the dissociation rate (Koff) were calculated using a simple one-to-one Languir binding model (BIAcore Evaluation Software version 3.2). The equilibrium dissociation constant (KD) was calculated as the ratio of Koff/Kₒₙ.

RhCD137-muFc = biological target: T2, RhCD137-muFc (rhesus monkey; mouse); test: ELISA, RhCD137-muFc coated at 5 ug/mL, antibody titrated 3-fold, goat anti-hIgG-HRP, OD450-650
T2 construct: Residues 1-186 as stated; no signal peptide cleavage site is stated; also called Rhesus monkey CD137; CD137 of rhesus monkey
T2 chain: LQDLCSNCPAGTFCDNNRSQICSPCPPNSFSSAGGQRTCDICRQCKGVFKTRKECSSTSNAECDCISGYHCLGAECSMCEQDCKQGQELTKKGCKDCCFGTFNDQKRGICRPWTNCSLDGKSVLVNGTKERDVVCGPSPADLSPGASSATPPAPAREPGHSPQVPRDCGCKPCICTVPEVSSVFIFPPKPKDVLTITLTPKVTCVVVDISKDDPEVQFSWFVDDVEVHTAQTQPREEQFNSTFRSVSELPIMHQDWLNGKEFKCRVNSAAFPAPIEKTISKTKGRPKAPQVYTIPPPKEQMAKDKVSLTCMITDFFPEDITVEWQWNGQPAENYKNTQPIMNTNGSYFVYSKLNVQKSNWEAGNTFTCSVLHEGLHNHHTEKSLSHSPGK
Experimental: RhCD137-muFc was diluted to 5 μg/mL 100 μL/well, with coating buffer (50 mM Na₂CO₃, NaHCO₃ pH 9.6), overnight at 4° C. After washing, the plates were blocked with 3% BSA-PBS for 1 h at 37° C. Anti-hCD137 14#mAbnew antibodies were respectively diluted from 2000 ng/mL and were diluted 3-fold, with the diluent (1% BSA-PBS) as a control, and incubated for 2 h at 37° C. Goat anti-hIgG-HRP conjugated was added and incubated for 1 h at 37° C. The soluble one-component TMB substrate developing solution was added, and the developing was performed in dark at room temperature for 5-10 min. 2N H₂SO₄ 50 μL/well was added to terminate the color development reaction. The OD_{450 nm-650 nm} values were read on MD Spectra Max Plus 384 microplate reader, and SoftMax Pro v5.4 was used for data processing and diagraph analysis, with the results shown in FIG. 8, in which it can be seen that anti-hCD137 14#mAb new may bind to CD137 of rhesus monkey.

[2] = biological target: T3, hGITR-EGFP on HEK293 cells (human, UniProt Q9Y5U5 26-241); test: flow cytometry on transfected HEK293 cells, anti-hIg-PE
T3 construct: EGFP fusion on transfected HEK293 cells; not shown: enhanced green fluorescent protein (EGFP), UniProt C5MKY7
T3 sequence (looked up): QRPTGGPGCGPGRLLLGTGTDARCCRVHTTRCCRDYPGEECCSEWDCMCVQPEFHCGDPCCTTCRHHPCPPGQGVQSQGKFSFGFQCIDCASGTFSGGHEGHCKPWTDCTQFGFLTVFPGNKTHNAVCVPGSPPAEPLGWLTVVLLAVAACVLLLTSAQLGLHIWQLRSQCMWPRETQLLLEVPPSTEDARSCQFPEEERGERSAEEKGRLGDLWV
Experimental: (§2) HEK293 cells expressing hCD137-EGFP, hOX40-EGFP, hCD27-EGFP and hGITR-EGFP constructed in Example 1 were resuspended in 0.5% PBS-BSA Buffer and anti-hCD137 C2scFv and C14 scFv protein were added, the negative control was hIgG Fe protein, then the mixture was incubated on ice for 20 min. After washing, secondary antibody anti-hIg-PE (eBioscience) was added and was incubated on ice for 20 min. After washing, the cells were resuspended in 500 μL of 0.5% PBS-BSA Buffer and detected by flow cytometry.
(§3) HEK293 cells expressing hCD137-EGFP, hOX40-EGFP, hCD27-EGFP and hGITR-EGFP constructed in Example 1 were resuspended in 0.5% PBS-BSA Buffer and anti-hCD137 C14 mAb protein was added, the negative control was hIgG Fc protein, then the mixture was incubated on ice for 20 min. After washing, a secondary antibody anti-hlg-PE (eBioscience) was added and incubated on ice for 20 min. After washing, the cells were resuspended in 500 μL 0.5% PBS-BSA Buffer and detected by flow cytometry.

[3] = biological target: T4, hCD27-EGFP on HEK293 cells (human, UniProt P26842 20-260); test: as above
T4 construct: EGFP fusion on transfected HEK293 cells; not shown: enhanced green fluorescent protein (EGFP), UniProt C5MKY7
T4 sequence (looked up): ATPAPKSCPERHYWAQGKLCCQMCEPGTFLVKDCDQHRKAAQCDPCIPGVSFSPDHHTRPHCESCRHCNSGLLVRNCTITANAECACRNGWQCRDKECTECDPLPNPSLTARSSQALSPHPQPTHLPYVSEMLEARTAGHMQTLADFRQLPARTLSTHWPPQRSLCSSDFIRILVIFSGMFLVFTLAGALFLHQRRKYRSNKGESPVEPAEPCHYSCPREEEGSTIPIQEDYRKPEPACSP
Experimental: as §2, §3

[4] = biological target: T5, hOX40-EGFP on HEK293 cells (human, UniProt P43489 29-277); test: as above
T5 construct: EGFP fusion on transfected HEK293 cells; not shown: enhanced green fluorescent protein (EGFP), UniProt C5MKY7
T5 sequence (looked up): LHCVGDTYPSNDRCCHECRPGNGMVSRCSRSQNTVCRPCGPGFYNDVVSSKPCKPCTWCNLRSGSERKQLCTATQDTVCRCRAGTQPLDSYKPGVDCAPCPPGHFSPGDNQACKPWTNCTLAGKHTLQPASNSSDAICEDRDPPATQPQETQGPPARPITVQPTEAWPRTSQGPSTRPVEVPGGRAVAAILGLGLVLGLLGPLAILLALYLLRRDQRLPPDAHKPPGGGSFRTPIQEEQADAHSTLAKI
Experimental: as §2, §3

hCD137-muFc [5] = biological target: T1, hCD137-muFc; test: SPR, BIAcore X100; scFv captured by anti-hFc on a CM5 chip, CD137-muFc as analyte 1000-31.6 nM; 1:1 Langmuir model
Experimental: as §1, with “anti-hCD137 C2scFv and C14 scFv antibodies” for “anti-hCD137 antibody”, “chip, C2 scFv or C14 scFv” for “chip, CD137-muFc”, “1000-31.6 nM,” for “1000-31.6 nM (C14Mab) or 100-3.16 nM (C14 Mab new),”

B1: anti-CD137 14#mAb new (antibody, V domains shown)
VH: QVQLQQSGPGLVKPSQTLSLTCAISGDSVSSNSAAWNWIRQSPSRGLEWLGRTYYRSKWYNDYAPSVESRITINPDTSKNQFSLQLSSVTPEDTAVYYCARDPPYVLSTFDIWGQGTMVTVSS
VL: NFMLTQPPSVSESPGKTVTISCTRSSGNIASFYVQWFQQRPGSSPTTVIYDDDQRPSGVPDRFSGSIDRSSNSASLTISGLTTDDEADYYCQSYDINKVIFGGGTKLTVL
notes: L50 E to D, L93 T to I and L95 N to K against C14; IgG4 / lambda; also called C14 mAbnew; C14 Mab new; not shown: human IgG4 constant region, UniProt P01861 (same method as C14mAb); human lambda light chain constant region, UniProt A0M8Q6 (same method as C14mAb)
Question: With B1 as the binder, how does the Kd (hCD137-muFc [1]) read?
Answer: Its Kd is 0.00268 µM.

Question: And the koff (hCD137-muFc [1])?
Answer: The koff was 0.000907 s⁻¹.

Question: And the kon (hCD137-muFc [1])?
Answer: The kon was 338000 M⁻¹ s⁻¹.

Question: Does B1 bind (RhCD137-muFc)?
Answer: Result: binds

B2: anti-hCD137 C14 scFv (scFv)
scFv: QVQLQQSGPGLVKPSQTLSLTCAISGDSVSSNSAAWNWIRQSPSRGLEWLGRTYYRSKWYNDYAPSVESRITINPDTSKNQFSLQLSSVTPEDTAVYYCARDPPYVLSTFDIWGQGTMVTVSSGGGGSGGGGSGGGGSNFMLTQPPSVSESPGKTVTISCTRSSGNIASFYVQWFQQRPGSSPTTVIYEDDQRPSGVPDRFSGSIDRSSNSASLTISGLTTDDEADYYCQSYDTNNVIFGGGTKLTVL
notes: The junction between scFv and Fc is not described; also called anti-CD137 14#ScFv; not shown: human IgG1-Fc domain, residues 104-330 of UniProt P01857
Question: Which results are given for B2?
Answer: binding result [2]: no binding; binding result [3]: no binding; binding result [4]: no binding; Kd (hCD137-muFc [5]): 0.0238 µM; koff (hCD137-muFc [5]): 0.000263 s⁻¹; kon (hCD137-muFc [5]): 11200 M⁻¹ s⁻¹

B3: anti-hCD137 C2 scFv (scFv)
scFv: EVQLVESGGGLVQPGGSLRLSCAASGFTVSDYYMNWIRQAPGKGLEWVSYISSSASGSTIYYADSVKGRFTISRDNANNSLYLHMDSLRAEDTAIYFCARVVPAGSGWRWFDPWGQGTLVTVSSGGGGSGGGGSGGGGSQSVLIQPPSASGSPGQSVTISCTGISSDVGAYDYVSWYQQHPGKVPKLMIYEVSKRPSGVPDRFSGSKSGDTASLTVSGLQAEDEADYYCSSHAGSNNFYVFGTGTKLTVL
notes: The junction between scFv and Fc is not described; not shown: human IgG1-Fc domain, residues 104-330 of UniProt P01857
Question: Does B3 bind [2]?
Answer: Result: no binding

Question: Does B3 bind [3]?
Answer: Result: no binding

Question: Does B3 bind [4]?
Answer: Result: no binding

Question: And the Kd (hCD137-muFc [5])?
Answer: Its Kd is 0.0116 µM.

Question: And the koff (hCD137-muFc [5])?
Answer: The koff was 0.000128 s⁻¹.

Question: And the kon (hCD137-muFc [5])?
Answer: Its kon is 11000 M⁻¹ s⁻¹.

B4: anti-hCD137 C14 mAb (antibody, human IgG4, V domains shown)
VH: QVQLQQSGPGLVKPSQTLSLTCAISGDSVSSNSAAWNWIRQSPSRGLEWLGRTYYRSKWYNDYAPSVESRITINPDTSKNQFSLQLSSVTPEDTAVYYCARDPPYVLSTFDIWGQGTMVTVSS
VL: NFMLTQPPSVSESPGKTVTISCTRSSGNIASFYVQWFQQRPGSSPTTVIYEDDQRPSGVPDRFSGSIDRSSNSASLTISGLTTDDEADYYCQSYDTNNVIFGGGTKLTVL
notes: domain: constant region; Human IgG4 / lambda antibody made in HEK293; also called anti-CD137 14#mAb; not shown: human immunoglobulin lambda light chain constant region, UniProt A0M8Q6
Question: Does B4 bind [2]?
Answer: Result: no binding

Question: Does B4 bind [3]?
Answer: Result: no binding

Question: Does B4 bind [4]?
Answer: Result: no binding
